According to paper PMC8076793:

Target: DexA (bacteriophage T4)
Assay: SEC; Äkta pure, HiLoad 16/600 Superdex 75 pg (Cef, MRH, Pin, DexA) or Superdex 200 pg (Y04L, Gp57B), in the respective dialysis buffers (Supplementary Table 3)

Sequence of DexA (P04536 whole entry): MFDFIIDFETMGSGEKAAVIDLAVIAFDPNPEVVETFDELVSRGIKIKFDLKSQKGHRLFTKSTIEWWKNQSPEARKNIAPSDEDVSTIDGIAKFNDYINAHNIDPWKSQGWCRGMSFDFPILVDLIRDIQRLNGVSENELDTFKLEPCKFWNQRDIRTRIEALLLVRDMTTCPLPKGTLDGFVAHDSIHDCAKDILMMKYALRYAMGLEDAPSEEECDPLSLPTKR

DexA (enzyme)
stoichiometry N: 2
